Assay results taken from patent US8513380B2, “Peptides for binding fibrinogen and fibrin” (Georgia Tech Research Corporation, priority 2009, dated 2013).
Where no end group is shown, it is not given here.

Key:
fibrinogen [1] = target: T1, fibrinogen (Homo sapiens, UniProt P02675+P02679); test: ELISA specificity assay: soluble Gxxx tetrapeptides competing with immobilized GPRP-FnIII9-10-C; assay type: binding; conditions: tetrapeptide in 10^2- to 10^4-fold molar excess; one-hour pre-incubation
T1 sequence (P02679 27-437 isoform P02679-2 limits assumed): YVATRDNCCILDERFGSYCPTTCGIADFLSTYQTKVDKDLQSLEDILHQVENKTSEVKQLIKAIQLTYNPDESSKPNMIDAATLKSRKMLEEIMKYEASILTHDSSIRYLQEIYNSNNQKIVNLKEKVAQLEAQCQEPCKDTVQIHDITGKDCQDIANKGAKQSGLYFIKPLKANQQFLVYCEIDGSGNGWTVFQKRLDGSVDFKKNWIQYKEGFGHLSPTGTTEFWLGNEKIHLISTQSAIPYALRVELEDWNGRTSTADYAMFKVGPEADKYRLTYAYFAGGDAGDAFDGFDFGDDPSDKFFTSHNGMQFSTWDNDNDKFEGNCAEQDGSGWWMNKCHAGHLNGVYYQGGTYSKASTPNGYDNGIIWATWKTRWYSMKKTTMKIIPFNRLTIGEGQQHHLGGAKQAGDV
T1 sequence (P02675 31-491): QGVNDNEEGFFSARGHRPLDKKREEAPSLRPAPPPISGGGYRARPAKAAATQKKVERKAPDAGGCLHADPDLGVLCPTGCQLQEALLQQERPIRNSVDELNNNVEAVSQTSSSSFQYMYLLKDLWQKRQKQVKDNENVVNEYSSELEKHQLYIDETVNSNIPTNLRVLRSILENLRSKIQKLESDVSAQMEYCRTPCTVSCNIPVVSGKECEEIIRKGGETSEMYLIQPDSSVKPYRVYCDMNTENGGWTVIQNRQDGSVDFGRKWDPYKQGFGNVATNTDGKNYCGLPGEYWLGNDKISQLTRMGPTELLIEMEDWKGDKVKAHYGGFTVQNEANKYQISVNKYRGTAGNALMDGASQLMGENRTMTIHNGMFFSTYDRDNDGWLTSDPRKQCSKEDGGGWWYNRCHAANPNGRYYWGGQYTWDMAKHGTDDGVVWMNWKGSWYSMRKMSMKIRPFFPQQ
T1 sequence (P02671 20-629 partner limits assumed): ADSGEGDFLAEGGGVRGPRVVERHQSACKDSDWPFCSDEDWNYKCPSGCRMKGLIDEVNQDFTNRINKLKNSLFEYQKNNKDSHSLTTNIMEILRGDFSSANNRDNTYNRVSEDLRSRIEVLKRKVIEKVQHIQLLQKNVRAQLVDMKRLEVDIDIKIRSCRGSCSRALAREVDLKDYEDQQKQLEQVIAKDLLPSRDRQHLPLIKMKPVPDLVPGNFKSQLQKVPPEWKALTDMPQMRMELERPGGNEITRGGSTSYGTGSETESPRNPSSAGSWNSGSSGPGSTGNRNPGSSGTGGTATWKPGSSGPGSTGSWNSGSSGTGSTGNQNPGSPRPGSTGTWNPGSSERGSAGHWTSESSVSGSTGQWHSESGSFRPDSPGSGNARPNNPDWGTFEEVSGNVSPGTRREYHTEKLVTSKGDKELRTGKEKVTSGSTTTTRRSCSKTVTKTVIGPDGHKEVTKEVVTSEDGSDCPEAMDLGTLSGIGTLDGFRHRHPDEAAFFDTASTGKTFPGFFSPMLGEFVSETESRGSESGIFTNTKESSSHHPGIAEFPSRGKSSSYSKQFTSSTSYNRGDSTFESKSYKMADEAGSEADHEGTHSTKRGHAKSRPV
Description: A modified ELISA technique was used to establish the affinity of fibrinogen for the various Gxxx-FnIII9-10-C (SEQ ID NO:20) proteins covalently immobilized on maleimide-activated plates via their C-terminal cysteines. Sulfhydryl-containing proteins/peptides were added to pre-blocked maleimide-activated 96-well plates (Pierce, Thermo Scientific, Rockford, Ill.) at 10 μg/mL in conjugation buffer (CB) comprising 150 mM NaCl, 100 mM phosphate, 10 mM EDTA, pH 7.2, with attachment occurring via maleimide-sulfhydryl (thioether) linkages. TCEP (1 mM) was added to maintain sulfhydryl groups in the reduced form. Following, unreacted maleimide groups were quenched with 20 μg/mL cysteine in CB. Human fibrinogen (25 μg/mL) was incubated with the substrates and unbound protein removed by washing. Bound fibrinogen was detected using HRP-conjugated goat anti-fibrinogen antibody (MP Biomedicals #55239) and 1-Step™ Ultra TMB-ELISA (Pierce). The TMB reaction was quenched with 1 M H2SO4 before measuring the Abs450 nm using the SPECTRAMAX® M2 (Molecular Devices, Sunnyvale, Calif.). All intervening wash steps were conducted using washing buffer (WB) comprising 150 mM NaCl, 100 mM phosphate, 0.05% Tween-20, pH 7.2; all binding steps were conducted using binding buffer (BB) comprising PBS+1% BSA. For basic affinity assays, the concentration of the fusion proteins was varied. For specificity assays, varying concentrations of Gxxx (SEQ ID NO:20) tetrapeptides (Genscript, Piscataway, N.J.) were added to the fibrinogen solution during incubation with the covalently immobilized proteins.
The tetrapeptides GPRV (SEQ ID NO:2) and GHRP (SEQ ID NO:3) are also known to bind fibrinogen via knob:pocket interactions, albeit with reduced affinities (Laudano A P, et al. Biochemistry 1980, 19(5):1013-1019).

fibrin = fibrin (Homo sapiens, UniProt P02675+P02679); conditions: cited from earlier work
fibrinogen [2] = target: T2, fibrinogen (Homo sapiens, UniProt P02675+P02679); test: Turbidity and percent clottability with PEGylated knob peptides; assay type: biochemical; conditions: 1:1 molar ratio; for percentage of clottable protein: no-peptide ˜95%
T2 sequence (P02679 27-433 limits assumed): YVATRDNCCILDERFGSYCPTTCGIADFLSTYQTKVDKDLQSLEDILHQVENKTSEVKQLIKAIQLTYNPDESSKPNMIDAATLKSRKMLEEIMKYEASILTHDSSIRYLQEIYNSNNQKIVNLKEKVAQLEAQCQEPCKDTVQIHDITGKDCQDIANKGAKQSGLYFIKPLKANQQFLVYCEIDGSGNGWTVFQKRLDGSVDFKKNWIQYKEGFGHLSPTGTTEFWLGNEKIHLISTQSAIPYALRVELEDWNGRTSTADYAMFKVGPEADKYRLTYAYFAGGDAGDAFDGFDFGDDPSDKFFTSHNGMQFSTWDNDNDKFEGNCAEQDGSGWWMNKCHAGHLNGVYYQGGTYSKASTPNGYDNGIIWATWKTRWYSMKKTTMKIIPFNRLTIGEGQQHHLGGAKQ
T2 sequence (P02675 31-491): T1 sequence (P02675 31-491)
T2 sequence (P02671 20-629 partner limits assumed): T1 sequence (P02671 20-629 partner limits assumed)
Description: Polymerization rate (turbidity curves), percent clottable protein, fiber structure (SEM), and viscoelastic properties of fibrin polymerized in the presence or absence of PEGylated-GPRPFPAC (5 kDa linear PEG chain, SED ID NO:53) at a 1:1 molar ratio were evaluated.
The turbidity curves upon initiating thrombin-activated polymerization and the amount of soluble protein remaining in the clot liquor after polymerization (percent clottable protein) were evaluated. All assays were performed with 1 mg/ml fibrinogen, 1 U/ml thrombin, 1 U/mL factor XIIIa, and 5 mM CaCl2; all PEG conjugates were tested at a 1:1 molar ratio.

Substance: GPRP
- competition with immobilized GPRP-FnIII9-10-C for binding to fibrinogen (fibrinogen [1]): dose-dependent inhibition of fibrinogen binding
- excess necessary to completely inhibit fibrin assembly (fibrin): ≥ 100 -fold excess

Substance: GPRPFPAC-PEG: GPRPFPAC conjugated to 5 kDa linear PEG chain (also: conjugated to 5 kDa linear PEG, site not given here; listed as Homo sapiens)
- maximum absorbance turbidity value (fibrinogen [2]; 1 mg/ml fibrinogen, 1 U/ml thrombin, 1 U/mL factor XIIIa): lower maximum absorbance turbidity value
- percentage of clottable protein (fibrinogen [2]): 92%

Substance: GPSPFPAC-PEG: control peptide conjugate, GPSPFPAC (SEQ ID NO:18) with PEG (also: PEG conjugate, site not given here; listed as Homo sapiens) [reference compound]
- percentage of clottable protein (fibrinogen [2]): did not change
